Laboratory results from US20070190061A1.

Molecular target: HMW-MAA-specific idiotypic mAb 763.74
Test: peptide concentration giving 50% inhibition of biotinylated mAb 763.74 binding to Colo38 cells, cell ELISA

| IC50 [nM] | Binder |
| --- | --- |
| 871 | ARSNYVGYHVRWYFD [peptide PMK2-23H3 (anti-id mAb MK2-23 H3-derived peptide)] |
| 900 | IRSGDEVHYHVTAGPRW [peptide PHMW-MAA.D2.7 (HMW-MAA-derived peptide)] |
